Drawing on a protein production outcome set (Wang et al. 2014), this text covers protein production for 20 sequences.

A short description of this series: label from the status in PepcDB records.
With “MRLNQISKFAIVSVVVLVLALLLGGSAKTNLTVEEVNKALEPFFDSLSYILNYYYEADKLDINKLIDHAIDGLVKGTGDDFSYYQDPETYRENQIEMKGEYGGLGIEVTYDAEHGAIKVVAPMYGTPAWRAGLKAGDLIITIDGTPVSKMTYMEAVNNLRGEPGTSVTIEVLRDGEKLTFTIVREKIEIKMVLYSFIETEKGSIGYVRITRFGEKADSDMKNALDKIFEKGVKGLIIDVRDNPGGYLDVALKIVSMFVDKGVILKVRNGFGEEDVYESYGNSYPNVPIVLLVNEGSASASEILTGALKDLGIATVVGRKTFGKGSVQTGFPLSNGGVLFLTTAHYLTPSGKDIHKIGIEPDVLVEESVEEELHAETREQIEVDPEKDPFVKKGLEVLLEKIK”, the protein production entry is recorded as “failed”.
In the case of “MRLPPRLALSVLAGRGPSCILGSGAATRKDWQERNRRSFSDLYTQPLPDCDFEESSSWTHKSRSEPTRHIACKKSARNLVRDLLEHQNPSHQLILECNPGPGILTGALLKAGARVVAFESEKMFIPHLESLRKNADGELQVVHCDFFKIDPRYQELVRPDVNSHTIFQNLGIKAVPWSAGVPIKVFGILPNKHERRLLWKILFDLYSCESIYRYGRVELNMFISEKEFRVRC” it was “failed”; in that of “MRLRVDVIPGEHLAYPDVVLVVDVIRATTTAAAFLEAGAEALYWTPSLESALAFKDEDVVLAGETGGLKPPRFDLGNSPREALSAQVAGRVVVMSTTNGTKAAHAAARTAKHVLLASLYNAHAAARLARELATEEVAILCAGKEGRAGLDDLYTAGVLAEYLGFLGEVEPEDGARVALAVKRAYPDPLEALSLSAAALALKQVGLEADVPFCAQVAKSAAVPVLRGRVGEALIFKRA”, “not failed”; in that of “MRLTIERRKASLYLRGNLPPKLPGGEWKQQRMPLGLDATPLGVKQAEAKAHQVGLELQMDRFRWQDHVELPIDASVMSGLVHLAEERYFSERDRTAKTLSTWQRVYVAHYRQIGLDKPFSLELIHRYLSSKRGFPNALQKAIVACRFLCAVANQPLDARPWQGVATRREVVPRELPTQQQIVDWFDHLKNMQLHHQPEFRAGWIWVYAAIATYGLRPHEAWYLDLDSLRKSKGKRVWLKDGKTGPRWVYPCPPQWVQRFDLCHGGPPPINVRNNQELGTRAGQWAKANGVPPLYGLRHSYAVRLIEYEFPVTVAAKMMGHSPQVHTETYHRWLGDREVQSYAEDLLR”, “failed”.
In the case of “MRLTKLAATIGCVTLSGLALVACSSDSTAGTDAVAVGGTFQFHSPDGKMEIFYDEADRQQLPDIGGDSLMEEGTQINLSDFENQVVILNAWGQWCAPCRSESDDLQIIHEELQAAGNGDTPGGTVLGINVRDYSRDIAQDFVTDNGLDYPSIYDPPFMTAASLGGVPASVIPTTIVLDKQHRPAAVFLREVTSKDVLDVALPLVDEA” it was “not failed”; in that of “MRLVSLLPSATEIIAALGLLPFLVGRSHECDYPPEVKALPVCTRARLNAQQSSLAIDRVVQELLRAALGIYDLELATLQALKPTHIITQDQCDVCAVTLPDVQRAIADLLEPPPQLISLQPHCLEDIWEDIRRVGLTLGVAPDPLLTVLKERMRACQRRVSDRPRRQVVAIEWIDPPMASGNWIPELIALAGGENMLGTAGKHSPYIEWSTLLAIDPEVILVMPCGFDLERTRQELDQALQTYPQWQQLRALQTGQLYILDGNAYFNRPGPRLVDSLEILVEILHPCPEPKFHGVGWRPYVGPSMAKMSDEG”, “failed”; in that of “MRMIDIIEKKRDGHTLTTEEINFFIGGYVKGDIPDYQASSLAMAIYFQDMNDDERAALTMAMVNSGDMIDLSDIKGVKVDKHSTGGVGDTTTLVLAPLVAAVDVPVAKMSGRGLGHTGGTIDKLEAIDGFHVEIDEATFVKLVNENKVAVVGQSGNLTPADKKLYALRDVTGTVNSIPLIASSIMSKKIAAGADAIVLDVKTGSGAFMKTLEDAEALAHAMVRIGNNVGRNTMAIISDMNQPLGRAIGNALELQEAIDTLKGQGPKDLTELVLTLGSQMVVLANKAETLEEARALLIEAINSGAALEKFKTFIKNQGGDETVIDHPERLPQAQYQIEYKAKKSGYVTELVSNDIGVASMMLGAGRLTKEDDIDLAVGIVLNKKIGDKVEEGESLLTIHSNRQDVDDVVKKLDSSITIADHVVSPTLIHKIITE”, “not failed”.
With “MRMLAHAIKVWNENTGALSHLEIEPLPHQIHLVHHILASGNFNWLIADDVGLGKTIETGMLLHALQQRDLAKRILLITPAGLTKQWQEELYHKFKLEDFEIYGEDFFINEPRQWKMHDCVIGSMDRLKQVDHLESLLQAEPWDLVIFDEGHRLSRRQYGQKLDSSERYDLAKNLRSQTKHMLLLSATPHQGMQDKFVALLELLRPERR” the entry was “failed”.
Consider “MRMQQDVQDVKLIAVLNLLNQLSNKNSLEEYLNGVIDFLSGWTGCENIGIRVLREAGLAPYVVHRGFDKDFIASESCISVEGDECVCLRVLKQQFKSEDQDHISAAGTYYAPNFYRYVEELREDQLLNFRGLCAHKQFKSLAVIPLLHQGKVVGAIHIADIKDGVFSEEDIHFIETIRPLVAEAIYRHNLEKALESTVLRYEAEEMVIRKLKFEERLASISARFNQQEDFKAAAEESLKDILKLFKAEEVCLYLGGNLKEYVSVREHGQQACGCVIPSDTFAELRGRWKQGEILCQKPALQDEFKEIEYFAQEVFSKDSILTIPLNFKGSLLGVLIIVNISSGGLPFKEILNPLKLVTETFANAVEQGRIQYQLMWSENRYRTIFNHSGSAFLIVDENLKILLSNPQAERLLDLPSAKIDNIAYLTDFLPDTEVGRLKEYNRRRLQRDPQIPRQYEMKYKDSRGNLKDVIVSAEVIPQTTQTVLSIIDITEWKKTEAELQFLNLHDRLTGLYNRVYFEQELRRYETDPGQEVGLIMADVNGLKLINTTFGSEAGDQVLVTTARLLNECFEEHLVARIGGDEFAVLIEKDKNVDLEQACQLFRRNVEKYNKDHDGYPLDISLGYACSGAGGVNMSELLRKADDAMGREKLHSNNSTRNSQVQILSKALECRDFITEGHAERVQNLIISTGQLAGLSEQRLSDLKLFAQFHDIGKVGIPDQILFKKGRLTADEWEIMKQHCEIGYRIAQSTPDIYPIADWILKHHENWDGSGYPLGIAGEEIPIECRILAVADTFDAMTNDRPYRKAQSTQAAIEEILRCAGTQFDPHIVELFVKTV”, for which the protein production entry is “failed”.
For “MRMRRSFPFLAGSALLVVLSAPAVAADGDEGFTIGDSRITESSGLAASRLHPGVYWTHNDSDDGPYLYAVDSRTGKTVATVTLSGVGSPRDVEAISIGPGNEIYVGDIGDNLGGQWDHVWIYELPEPKVLEDQTIRATQYVVKYADGARDAESLMVHPKTGRVYIVDKKEDGGHLYEGPARLSASGTNVFEPLGAVGLWATDAAFSPDGKQLAVRGYFGGIAYTWNGGKIKRQGQLSVPLQRQGESVTYTADGSELMYGSEGADSAVKPGSVPGYSGSGAKSPSGGGGSASAQDGDSDGSHANYKVGALALAVALALGLGVKRLLRRG”, the protein production entry is listed as “failed”.
With “MRMSRIQARLLQAIVRPALKTNLLKHAAWRVVLKLRNEFAHAVPPVELETTFDENIRILTSLSDHIESQVFWQGFQEADEGVILLLKRFLPSDGSFIDVGANIGTFTLVAAHRAVRGQVHAFEPSAHHFARLAHNVELNDFKNVALNRKGLYDQPGEAVLFLPSQTGEMNNSGAASLYTSALEETRQVSEAVSLIRLDDYVREKSIGRVDIIKIDIEGAELKALEGARETIARFRPLVFMELDLDNLERAERSPEEVLQYWKSLNYEVSIILLTGETVPVTSPKEFGLHQNLQCRPF” the entry was “failed”.
With “MRNETLVSIIVPVYNSAQYLRKCIDSILAQSYTEFELLLINDGSEDHSGLICDDYAQSDNRIQVFHQENAGVSAARNLGLEKHTGEHFLFIDSDDYIQERYLEELMKYASCDFVQCSCCSEPVGNDYLFVDGNFEGSDEIKQCLLKYIYPEFTVPFGRLYKSSIQRKNKLFFDTYLYSGEDTLWVSQYLLCVHSLRVSSYIGYIYVHHVGEHLSQKSISYEHLEYTLHKLLISYSDLEKRYDFDLTGVRYSVIIYFFHRYIVYIANRNYTEIRKELEKSCANPLIKGVFYDKKYLLKGKKMKLFNWLVLHDMYSVLALYVKRWKRYLLEHHHHHH” the entry was “not failed”.
For “MRNKDNQHSRLYYIILTIVIIAICVVVVILFNTLKTNRSHSTDRYADFTELKKDTIKNKDWRIKTKHRKNKDILVTAIHGGGIEPGTTEIARRISNVGKYNFYTFEGLRKSNNDQLHVTSTQFNEPILDKLLKNTKETLSIHGFSGDDPIVYIGGKDKEMSHSITKELRKKDFTVKESPNKIDAKSSDNIANKNESNSGVQLELTTALRKQFFKHYKLDRHTRSDSDKYTKDFYKFANAVQKGIEKVNLEHHHHHH”, the protein production entry is reported as “not failed”.
In the case of “MRNMQEKGVSEKEILEELKKYRSLDLKYEDGNIFGSMCSNVLPITRKIVDIFLETNLGDPGLFKGTKLLEEKAVALLGSLLNNKDAYGHIVSGGTEANLMALRCIKNIWREKRRKGLSKNEHPKIIVPITAHFSFEKGREMMDLEYIYAPIKEDYTIDEKFVKDAVEDYDVDGIIGIAGTTELGTIDNIEELSKIAKENNIYIHVDAAFGGLVIPFLDDKYKKKGVNYKFDFSLGVDSITIDPHKMGHCPIPSGGILFKDIGYKRYLDVDAPYLTETRQATILGTRVGFGGACTYAVLRYLGREGQRKIVNECMENTLYLYKKLKENNFKPVIEPILNIVAIEDEDYKEVCKKLRDRGIYVSVCNCVKALRIVVMPHIKREHIDNFIEILNSIKRD” it was “not failed”; in that of “MRNVIAAVMASTLALSAYSQAAEVVTSVNWLPGDEGGQRGSQSHMFDGISLTEQQRQQLRDLMQRARHDRLPVNVSEMETMHRLVTAENFDENAVRAQAEKMAQEQVARQVEMAKVRNQMYHLLTPEQQAVLNAKHQQRMDQLREVARMQKGSAMMLSSSSNTLQPQ”, “failed”; in that of “MRNYIQGIDHVQVAAPVGCEEEARAFYGETIGMEEIPKPEELKKRGGCWFKCGNQEIHIGVEQNFNPAKRAHPAFYVLKIDEFKQELIKQGIEVIDDHARPDVIRFYVSDPFGNRIEFMENKN”, “not failed”.
In the case of “MRPIPEGYEAVFETVVTPEMTVRFEELGPVHPVYATYWMVKHMELAGRKIILPFLEEGEEGIGSYVEARHLASALPGMRVRVVARHEKTEGNRVYARVEAYNELGDLIGVGRTEQVILPKAKVEALFRRLKERWEAERSPS” it was “not failed”.
With “MRPNLLEALRAMTEGELYAALYQDPLTGVLNRRAFAGAIEEARAVALVDMDSLKWINDNLGHRAGDRALRVLADGLVRSFGADWVFRVSGDEFAVMDGDAEQLAQRLLLLRSSVPGFSFGTGSDMAEADRDMRHDKAEREKSGHRAARGLRPPWVP” the entry was “failed”.
For “MRQIPQNHIHTRSTPFWNKETAPAGIFERHLDKGTRPDVYPRLSVMQGAVKYLGYADEHCSEPEEIMVINAGEFGVFPPEKWHNIEVMTDDTYFNIDFFVAPEVLMEGATSRKVIHAGRELEHHHHHH”, the protein production entry was “not failed”.
For the sequence “MRQIRYAYAVAVDALYTFLADDGWAIASHIALSTLMALFPFLIVLTSLAGFVGSRELADSAAELLLDVWPAQVASTLSGEIHDVLTTTRGGVLTIGLVLALYFASNGVESLRVGLNRAYAVIEPRPWYLLRLESIGYTLVAAFTALAMGFLIVLGPLIVATARHYVPLLVHDNEPLLTFARYGIAITALTVALFLLHAYLPAGRRSFRQILPGIVFTITASLISGMTFGMYLARFANNYVSMYAGLASVIIALVFLYFIAAIFVYGGELNAAIIKSRLPEGTTLQEAQLRAPGAKPV”, the protein production entry was “not failed”.
